The target of the test is untagged recombinant mouse TWEAK (mouse) (UniProt O54907).
Sequence of UniProt O54907 (O54907 94-249): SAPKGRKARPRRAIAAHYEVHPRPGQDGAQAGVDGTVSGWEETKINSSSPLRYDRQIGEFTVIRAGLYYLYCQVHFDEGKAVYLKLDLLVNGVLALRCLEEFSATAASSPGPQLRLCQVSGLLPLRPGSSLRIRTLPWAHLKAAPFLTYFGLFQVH

On to recombinant mouse sCD163 (receptor), for which the TWEAK (200 ng ml^-1)-induced canonical and non-canonical NF-kB signalling in mouse endothelial cells (MDEC), immunoblotting, with increasing doses of recombinant mouse sCD163 worked out at 50.
